Measured values reported in PMC6093203 (Journal of the American Chemical Society, 2018).

Biological target: non-phosphorylated PTEN (n-PTEN)
Assay: fluorescence polarisation

Kd: 120 µM
B1: F-HECT-WWP2 (domain or fragment)
chain: KPYDLRRRLYIIMRGEEGLDYGGIAREWFFLLSHEVLNPMYCLFEYAGKNNYCLQINPASSINPDHLTYFRFIGRFIAMALYHGKFIDTGFTLPFYKRMLNKRPTLKDLESIDPEFYNSIVWIKENNLEECGLELYFIQDMEILGKVTTHELKEGGESIRVTEENKEEYIMLLTDWRFTRGVEEQTKAFLDGFNEVAPLEWLRYFDEKELELMLCGMQEIDMSDWQKSTIYRHYTKNSKQIQWFWQVVKEMDNEKRIRLLQFVTGTCRLPVGGFAELIGSNGPQKFCIDKVGKETWLPRSHTCFNRLDLPPYKSYEQLREKLLYAIEETEGFGQE
modifications: fluorescein on the N-terminal Cys
